Here are results for one molecule from patent US20240166737A1 (Janssen / Centocor, published 2024).

“And” between values parts separate entries of the source, which are not always exact repeats. Equal values may be shown once.

Assay [1] deals with T1, MSNW11, recombinant soluble (shed) MSLN lacking the C-terminal 7 AAs (human, UniProt Q13421 296-591).
T1 construct: domain: soluble MSLN lacking the C-terminal 7 AAs; also called MSNW11.002; soluble MSLN
As to the kind of experiment: SPR. On the technique in general: In SPR one partner is held on a chip, and binding of the other changes the refractive index at the surface.

Assay [2] addresses human MSLN on the cell surface (human, UniProt Q13421 296-598). Description: cell-based or functional assay.
In assay [3] the target is T2, recombinant CD3 (UniProt P07766 23-126).
T2 construct: also called CD3 (SPR)
T2 sequence (P07766 23-126): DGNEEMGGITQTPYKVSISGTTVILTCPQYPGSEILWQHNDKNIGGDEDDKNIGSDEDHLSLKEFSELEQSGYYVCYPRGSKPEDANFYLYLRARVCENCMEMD
Description: SPR, recombinant CD3.

Another assay deals with T3, mouse MSLN (mouse, UniProt Q61468 298-600, limits assumed).
T3 construct: also called corresponding mouse antigen
T3 sequence (looked up): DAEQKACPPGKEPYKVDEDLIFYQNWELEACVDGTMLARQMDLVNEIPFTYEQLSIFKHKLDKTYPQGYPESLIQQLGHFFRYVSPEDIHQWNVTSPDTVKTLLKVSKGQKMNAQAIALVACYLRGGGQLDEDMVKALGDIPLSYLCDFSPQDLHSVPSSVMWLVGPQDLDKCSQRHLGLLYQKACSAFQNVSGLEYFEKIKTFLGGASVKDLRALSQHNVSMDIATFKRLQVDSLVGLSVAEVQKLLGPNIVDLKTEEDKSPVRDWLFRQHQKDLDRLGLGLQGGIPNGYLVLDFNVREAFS
Description: not described (study MSLN-00922).

The next assay concerns the target T4, mouse CD3 (mouse, UniProt P22646 22-108).
T4 construct: also called corresponding mouse antigen
T4 sequence (looked up): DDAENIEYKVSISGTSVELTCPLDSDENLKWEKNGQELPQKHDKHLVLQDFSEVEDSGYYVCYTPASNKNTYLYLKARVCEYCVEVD
Description: not described (study MSLN-00922).

Assay [4] concerns the target T5, MSNW10, recombinant full length human MSLN (human, UniProt Q13421 296-598).
T5 construct: also called MSNW10.002; FL-MSLN
Description: SPR after forced degradation.

Assay [5] deals with T2, recombinant CD3. As to the kind of experiment: SPR after forced degradation.
Assay [6] deals with T6, CD3 epsilon on human T-cells (human, UniProt P07766 23-207).
T6 construct: part of the TCR-CD3 complex on T cells; also called CD3 on T cells
T6 sequence (P07766 23-207 limits assumed): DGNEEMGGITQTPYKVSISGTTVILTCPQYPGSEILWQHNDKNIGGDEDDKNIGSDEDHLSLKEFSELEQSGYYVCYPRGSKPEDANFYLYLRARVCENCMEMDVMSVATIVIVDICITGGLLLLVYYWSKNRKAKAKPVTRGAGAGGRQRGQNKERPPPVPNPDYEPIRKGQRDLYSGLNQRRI
Description: 1-hour 37 °C T-cell binding assay.

Assay [7] has as its target T7, MSLN with Met593Val on cells homozygous for SNP rs1135210 (SNP G|G) (human, UniProt Q13421 296-598).
T7 construct: also called homozygous SNP-positive cells; BxPC3, NCI-H322
As to the kind of experiment: binding to homozygous SNP-positive cells.

The target in assay [8] is T5, MSNW10, recombinant full length human …. Description: SPR, recombinant full-length human MSLN.
Assay [9] has the same target. As to the kind of experiment: SPR after forced degradation; after pH 5 (Iso) forced degradation.
Assay [10] has as its target T2, recombinant CD3. The description is as above.

T5 sequence (Q13421 other isoform, or with tags, fused parts or gaps limits assumed): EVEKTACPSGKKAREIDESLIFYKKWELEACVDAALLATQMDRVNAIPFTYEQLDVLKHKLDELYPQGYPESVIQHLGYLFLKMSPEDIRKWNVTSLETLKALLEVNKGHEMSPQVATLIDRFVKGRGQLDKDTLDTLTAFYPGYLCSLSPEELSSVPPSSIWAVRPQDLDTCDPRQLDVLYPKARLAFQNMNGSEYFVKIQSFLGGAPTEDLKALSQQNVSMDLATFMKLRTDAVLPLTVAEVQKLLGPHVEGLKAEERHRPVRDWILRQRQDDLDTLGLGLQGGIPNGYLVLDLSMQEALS
T7 sequence (Q13421 other isoform, or with tags, fused parts or gaps M593V M593V limits assumed): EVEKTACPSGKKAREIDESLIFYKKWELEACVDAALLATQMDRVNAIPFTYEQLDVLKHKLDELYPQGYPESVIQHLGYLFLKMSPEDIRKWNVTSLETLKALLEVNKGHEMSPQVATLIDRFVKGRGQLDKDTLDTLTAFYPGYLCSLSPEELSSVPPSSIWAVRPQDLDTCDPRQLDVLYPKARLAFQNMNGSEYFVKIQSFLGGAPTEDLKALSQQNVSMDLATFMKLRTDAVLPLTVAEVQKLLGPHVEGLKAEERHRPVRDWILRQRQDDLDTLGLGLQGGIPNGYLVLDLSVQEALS
T1 sequence (Q13421 other isoform, or with tags, fused parts or gaps limits assumed): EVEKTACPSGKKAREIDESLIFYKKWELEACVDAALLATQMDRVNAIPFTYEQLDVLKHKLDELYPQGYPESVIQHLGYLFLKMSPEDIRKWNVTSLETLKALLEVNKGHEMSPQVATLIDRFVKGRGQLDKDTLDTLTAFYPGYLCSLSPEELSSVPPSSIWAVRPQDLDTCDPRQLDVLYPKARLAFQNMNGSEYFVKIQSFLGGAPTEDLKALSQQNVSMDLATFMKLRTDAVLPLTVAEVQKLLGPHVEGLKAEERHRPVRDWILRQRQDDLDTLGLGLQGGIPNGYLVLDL

B1: MNC3B304 (bispecific antibody, human IgG1, kappa, L234A L235A)
scFv: DIQMTQSPSSLSASVGDRVTITCRARQSIGTAIHWYQQKPGKAPKLLIKYASESISGVPSRFSGSGSGTDFTLTISSLQPEDFATYYCQQSGSWPYTFGQGTKLEIKGGSEGKSSGSGSESKSTGGSEVQLVESGGGLVKPGGSLRLSCAASGFTFSRYNMNWVRQAPGKGLEWVSSISTSSNYIYYADSVKGRFTFSRDNAKNSLDLQMSGLRAEDTAIYYCTRGWGPFDYWGQGTLVTVSSEPKSSDKTHTCPPCPAPEAAGGPSVFLFPPKPKDTLMISRTPEVTCVVVSVSHEDPEVKFNWYVDGVEVHNAKTKPREEQYNSTYRVVSVLTVLHQDWLNGKEYKCKVSNKALPAPIEKTISKAKGQPREPQVYTLPPSREEMTKNQVSLWCLVKGFYPSDIAVEWESNGQPENNYKTTPPVLDSDGSFFLYSKLTVDKSRWQQGNVFSCSVMHEALHNHYTQKSLSLSPGK
heavy: QVQLVESGPGQVKPSQTLSLTCAISGDSVSSNSAAWNWIRQSPSRGLEWLGRTYYRSKWYNDYAVSVKSRITINPDTSKNQFSLQLNSVTPEDTAVYYCARRDYSSGGFDYWGQGTTVTVSSASTKGPSVFPLAPSSKSTSGGTAALGCLVKDYFPEPVTVSWNSGALTSGVHTFPAVLQSSGLYSLSSVVTVPSSSLGTQTYICNVNHKPSNTKVDKKVEPKSCDKTHTCPPCPAPEAAGGPSVFLFPPKPKDTLMISRTPEVTCVVVSVSHEDPEVKFNWYVDGVEVHNAKTKPREEQYNSTYRVVSVLTVLHQDWLNGKEYKCKVSNKALPAPIEKTISKAKGQPREPQVYTLPPSREEMTKNQVSLSCAVKGFYPSDIAVEWESNGQPENNYKTTPPVLDSDGSFFLVSKLTVDKSRWQQGNVFSCSVMHEALHNRFTQKSLSLSPGK
light: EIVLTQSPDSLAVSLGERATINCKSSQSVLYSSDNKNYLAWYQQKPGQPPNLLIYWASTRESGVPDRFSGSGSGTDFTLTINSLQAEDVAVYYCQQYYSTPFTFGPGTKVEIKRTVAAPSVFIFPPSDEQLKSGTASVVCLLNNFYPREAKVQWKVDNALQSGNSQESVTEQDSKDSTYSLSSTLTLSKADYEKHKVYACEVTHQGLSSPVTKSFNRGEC
notes: also called mrMSLN-MSNB457 x W245LH, KiH; CD3W245 LH containing Bipod
For the molecule B1, the binding result (in [1]; in the assay with mouse MSLN; with mouse CD3; in assay [7]) was “no binding” throughout. Moreover, the “cytotoxicity EC50, OVCAR-8 K1/C8 MSLN medium cells, Incucyte 72 hours, 1:1 E:T” value in assay [2] is 1.2 nM. Further, the “cytotoxicity EC50, OVCAR-8 MSLN high cells, Incucyte 72 hours, 1:1 E:T” value in assay [2] was 0.24 nM. The “cytotoxicity EC50, SK-OV-3 MSLN low cells, Incucyte 72 hours, 1:1 E:T” value in assay [2] is 103 nM. In addition, the dissociation constant (Kd) in the assay with recombinant CD3 [3] is 0.12 nM; in [4] it was 5.22 nM and 4.92 nM and 4.76 nM and 5.03 nM; in the assay with recombinant CD3 [5], 0.13 nM and 0.17 nM and 0.14 nM; in [8] it was 4.64 nM; in assay [9], 4.7 nM; in the assay with recombinant CD3 [10] it was 0.13 nM. For the same molecule, the EC50 in [6] was over 100 nM.

In general, Kd refers to a measure of binding affinity in units of concentration. Usually EC50 stands for the concentration that produces a half-maximal response. Read a low EC50 as greater potency.
